B1: E3 ubiquitin-protein ligase RNF146 (Homo sapiens), Q9NTX7 (parent)
chain: MMAGCGEIDHSINMLPTNRKANESCSNTAPSLTVPECAICLQTCVHPVSLPCKHVFCYLCVKGASWLGKRCALCRQEIPEDFLDKPTLLSPEELKAASRGNGEYAWYYEGRNGWWQYDERTSRELEDAFSKGKKNTEMLIAGFLYVADLENMVQYRRNEHGRRRKIKRDIIDIPKKGVAGLRLDCDANTVNLARESSADGADSVSAQSGASVQPLVSSVRPLTSVDGQLTSPATPSPDASTSLEDSFAHLQLSGDNTAERSHRGEGEEDHESPSSGRVPAPDTSIEETESDASSDSEDVSAVVAQHSLTQQRLLVSNANQTVPDRSDRSGTDRSVAGGGTVSVSVRSRRPDGQCTVTEV

Variants of: B1
Details: with parp1_human PARP1, P09874
Chain of parp1_human PARP1, P09874 (P09874 whole entry): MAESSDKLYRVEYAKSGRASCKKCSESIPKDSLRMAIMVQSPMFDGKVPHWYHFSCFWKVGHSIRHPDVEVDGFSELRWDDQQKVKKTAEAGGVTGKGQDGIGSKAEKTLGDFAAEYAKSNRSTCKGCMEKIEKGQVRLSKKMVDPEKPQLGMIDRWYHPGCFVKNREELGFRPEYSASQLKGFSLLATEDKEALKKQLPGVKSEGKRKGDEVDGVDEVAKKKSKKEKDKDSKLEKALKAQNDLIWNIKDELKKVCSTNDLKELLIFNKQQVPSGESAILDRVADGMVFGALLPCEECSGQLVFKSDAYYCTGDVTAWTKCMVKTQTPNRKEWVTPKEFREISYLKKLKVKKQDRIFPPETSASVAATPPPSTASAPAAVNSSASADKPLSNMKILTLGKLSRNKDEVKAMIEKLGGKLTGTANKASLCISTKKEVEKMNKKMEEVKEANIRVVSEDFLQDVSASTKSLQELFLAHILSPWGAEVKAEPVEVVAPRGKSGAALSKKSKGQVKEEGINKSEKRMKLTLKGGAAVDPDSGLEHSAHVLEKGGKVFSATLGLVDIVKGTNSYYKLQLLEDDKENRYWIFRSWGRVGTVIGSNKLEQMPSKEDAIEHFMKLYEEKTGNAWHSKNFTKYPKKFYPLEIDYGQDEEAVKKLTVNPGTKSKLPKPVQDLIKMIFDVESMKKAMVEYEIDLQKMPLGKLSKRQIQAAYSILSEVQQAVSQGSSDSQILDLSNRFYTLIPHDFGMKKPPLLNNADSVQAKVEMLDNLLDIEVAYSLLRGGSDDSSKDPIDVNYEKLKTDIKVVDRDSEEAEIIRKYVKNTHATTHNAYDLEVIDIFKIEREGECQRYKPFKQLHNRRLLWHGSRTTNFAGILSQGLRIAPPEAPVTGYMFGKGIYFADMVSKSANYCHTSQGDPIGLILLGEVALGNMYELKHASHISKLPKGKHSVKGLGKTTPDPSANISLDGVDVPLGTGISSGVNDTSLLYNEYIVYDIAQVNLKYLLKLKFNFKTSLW

effect of a mutation on the interaction | Variant
with no effect | MMAGCGEIDHSINMLPTNRKANESCSNTAPSLTVPECAICLQTCVHPVSLPCKAVFCYLCVKGASWLGKRCALCRQEIPEDFLDKPTLLSPEELKAASRGNGEYAWYYEGRNGWWQYDERTSRELEDAFSKGKKNTEMLIAGFLYVADLENMVQYRRNEHGRRRKIKRDIIDIPKKGVAGLRLDCDANTVNLARESSADGADSVSAQSGASVQPLVSSVRPLTSVDGQLTSPATPSPDASTSLEDSFAHLQLSGDNTAERSHRGEGEEDHESPSSGRVPAPDTSIEETESDASSDSEDVSAVVAQHSLTQQRLLVSNANQTVPDRSDRSGTDRSVAGGGTVSVSVRSRRPDGQCTVTEV [H54A]
